Laboratory results from patent publication US20110118131A1 (published 2011).
Changes are numbered by the printed parent chain. Names may count otherwise. “And” between values parts separate entries of the source, which are not always exact repeats. Equal values may be shown once.

T1: Ep-CAM (UniProt P16422 24-265)
T1 chain: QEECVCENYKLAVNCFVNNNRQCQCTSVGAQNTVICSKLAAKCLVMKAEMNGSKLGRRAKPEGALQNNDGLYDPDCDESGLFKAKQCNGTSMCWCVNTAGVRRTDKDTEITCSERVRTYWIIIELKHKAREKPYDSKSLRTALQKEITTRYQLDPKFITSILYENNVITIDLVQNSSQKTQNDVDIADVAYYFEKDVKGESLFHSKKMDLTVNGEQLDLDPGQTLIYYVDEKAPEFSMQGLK

B1: XPA23 heavy chain D106L (Fab, V domains shown)
VH: EVQLLESGGGLVQPGGSLRLSCAASGFTFSKYFMFWVRQAPGKGLEWVSVISPSGGMTRYADSVKGRFTISRDNSKNTLYLQMNSLRAEDTAVYYCARVGYGGNSLYWGQGTLVTVSS
VL: DIQMTQSPSSVSASVGDRLTIICRASQDINRWLAWYQQTPGNAPKLLIHSATSLQSGVPSRFSGSGSGTDFTLTINSLQPEDFATYYCQQADSFPLTFGGGTKVEIK
notes: Fab, periplasmic extract; also called C5A D106L
B2: XPA23 heavy chain G100L (Fab, V domains shown)
VH: B1 VH with G100L, L106D
VL: B1 VL
notes: Fab, periplasmic extract; also called C5A G100L
B3: XPA23 heavy chain S30P (Fab, V domains shown)
VH: B1 VH with S30P, L106D
VL: B1 VL
notes: Fab, periplasmic extract; also called C5A S30P
B4: XPA23 heavy chain V99P (Fab, V domains shown)
VH: B1 VH with V99P, L106D
VL: B1 VL
notes: Fab, periplasmic extract; also called C5A V99P
B5: XPA23 heavy chain G102L (Fab, V domains shown)
VH: B1 VH with G102L, L106D
VL: B1 VL
notes: Fab, periplasmic extract; also called C5A G102L
B6: XPA23 heavy chain V99L (Fab, V domains shown)
VH: B1 VH with V99L, L106D
VL: B1 VL
notes: Fab, periplasmic extract; also called C5A V99L
B7: XPA23 heavy chain M57P (Fab, V domains shown)
VH: B1 VH with M57P, L106D
VL: B1 VL
notes: Fab, periplasmic extract; also called C5A M57P
B8: XPA23 heavy chain D106T (Fab, V domains shown)
VH: B1 VH with L106T
VL: B1 VL
notes: Fab, periplasmic extract; also called C5A D106T
B9: XPA23 heavy chain G102V (Fab, V domains shown)
VH: B1 VH with G102V, L106D
VL: B1 VL
notes: Fab, periplasmic extract; also called C5A G102V
B10: XPA23 heavy chain G102A (Fab, V domains shown)
VH: B1 VH with G102A, L106D
VL: B1 VL
notes: Fab, periplasmic extract; also called C5A G102A
B11: XPA23 heavy chain K31T (Fab, V domains shown)
VH: B1 VH with K31T, L106D
VL: B1 VL
notes: Fab, periplasmic extract; also called C5A K31T
B12: XPA23 heavy chain K31P (Fab, V domains shown)
VH: B1 VH with K31P, L106D
VL: B1 VL
notes: Fab, periplasmic extract; also called C5A K31P
B13: XPA23 heavy chain V50P (Fab, V domains shown)
VH: B1 VH with V50P, L106D
VL: B1 VL
notes: Fab, periplasmic extract; also called C5A V50P
B14: XPA23 heavy chain Y32A (Fab, V domains shown)
VH: B1 VH with Y32A, L106D
VL: B1 VL
notes: Fab, periplasmic extract; also called C5A Y32A
B15: XPA23 heavy chain S30V (Fab, V domains shown)
VH: B1 VH with S30V, L106D
VL: B1 VL
notes: Fab, periplasmic extract; also called C5A S30V
B16: XPA23 heavy chain S52I (Fab, V domains shown)
VH: B1 VH with S52I, L106D
VL: B1 VL
notes: Fab, periplasmic extract; also called C5A S52I
B17: XPA23 heavy chain S52L (Fab, V domains shown)
VH: B1 VH with S52L, L106D
VL: B1 VL
notes: Fab, periplasmic extract; also called C5A S52L
B18: XPA23 heavy chain I51P (Fab, V domains shown)
VH: B1 VH with I51P, L106D
VL: B1 VL
notes: Fab, periplasmic extract; also called C5A I51P
B19: XPA23 heavy chain D106V (Fab, V domains shown)
VH: B1 VH with L106V
VL: B1 VL
notes: Fab, periplasmic extract; also called C5A D106V
B20: XPA23 heavy chain R59V (Fab, V domains shown)
VH: B1 VH with R59V, L106D
VL: B1 VL
notes: Fab, periplasmic extract; also called C5A R59V
B21: XPA23 heavy chain G102P (Fab, V domains shown)
VH: B1 VH with G102P, L106D
VL: B1 VL
notes: Fab, periplasmic extract; also called C5A G102P
B22: XPA23 heavy chain R59I (Fab, V domains shown)
VH: B1 VH with R59I, L106D
VL: B1 VL
notes: Fab, periplasmic extract; also called C5A R59I
B23: XPA23 heavy chain G100P (Fab, V domains shown)
VH: B1 VH with G100P, L106D
VL: B1 VL
notes: Fab, periplasmic extract; also called C5A G100P
B24: XPA23 heavy chain R59A (Fab, V domains shown)
VH: B1 VH with R59A, L106D
VL: B1 VL
notes: Fab, periplasmic extract; also called C5A R59A
B25: XPA23 heavy chain S105L (Fab, V domains shown)
VH: B1 VH with S105L, L106D
VL: B1 VL
notes: Fab, periplasmic extract; also called C5A S105L
B26: XPA23 heavy chain Y101G (Fab, V domains shown)
VH: B1 VH with Y101G, L106D
VL: B1 VL
notes: Fab, periplasmic extract; also called C5A Y101G
B27: XPA23 heavy chain D106P (Fab, V domains shown)
VH: B1 VH with L106P
VL: B1 VL
notes: Fab, periplasmic extract; also called C5A D106P
B28: modified ING-1 IgG with a 102G substitution (antibody, V domains shown)
VH: QIQLVQSGPELKKPGETVKISCKASGYTFTKYGMNWVKQAPGKGLKWMGWINTYTEEPTYGDDFKGRFAFSLETSASTANLQINNLKSEDTATYFCARFGSGVDYWGQGTSVTVSS
VL: QIVMTQAAFSNPVTLGTSGSISCRSSKSLLHSNGITYLYWYLQKPGQSPQLLIYQMSNLASGVPDRFSSSGSGTDFTLRISRVEAEDVGVYYCAQNLELPRTFGGGTKLEMKR
B29: modified ING-1 IgG with an A102F substitution (antibody, V domains shown)
VH: B28 VH with G102F
VL: B28 VL
B30: XPA23 (IL-1 antibody) (antibody, V domains shown)
VH: B1 VH with L106D
VL: B1 VL
notes: also called cA5; C5A
B31: modified XPA23 Y208L mutant (antibody, V domains shown)
VH: B1 VH with Y101L, L106D
VL: B1 VL

Target: T2, IL-1β (UniProt P01584 117-269)
T2 construct: Antigen of XPA23
Assay: Biacore, Fab periplasmic extract; -1 = no binding by the table's footnote

binding result	Molecule
no binding	B1
no binding	B2
no binding	B3
no binding	B4
no binding	B5
no binding	B6
no binding	B7
no binding	B8
no binding	B9
no binding	B10
no binding	B11
no binding	B12
no binding	B13
no binding	B14
no binding	B15
no binding	B16
no binding	B17
no binding	B18
no binding	B19
no binding	B20
no binding	B21
no binding	B22
no binding	B23
no binding	B24
no binding	B25
no binding	B26
no binding	B27

Target: T1, Ep-CAM
Assay: Biacore SPR; Fig. 15C

Kd	Molecule
0.6 nM	B28

Target: T1, Ep-CAM
Assay: Biacore SPR; Fig. 15B

Kd	Molecule
0.9 nM	B29

Target: biotinylated Ep-Cam (UniProt P16422)
Assay: DELFIA competition, negative control well, biotinylated Ep-Cam, plate-coated parental ING-1 IgG as competitor

Percentage of inhibition	Molecule
-0.4% and 0.1% and 0.3%	negative control (wells E12-H12)

Target: IL-1β (UniProt P01584 117-269)
Assay: Biacore kinetic titration, IL-1β amine coupled to CM5 chip, 25 C
Procedure: In an exemplary method, an antigen such as IL-1β is amine coupled to a CM5 sensor chip. Each sample (e.g., from lowest to highest concentration) may be injected for 240 seconds at a flow rate of 30 µl/min at a selected temperature (e.g., 25° C.). Sample are allowed to dissociate for 30 seconds except the highest concentration which may be permitted 300 seconds to dissociate. The assay is run at 25° C.
Biaevaluation software (e.g., Biacore 2000 evaluation software) is used to calculate dissociation rates of individual samples and the relative amount of sample bound to each test surface. The data is fit to an appropriate kinetic model (e.g., the kinetic titration model).

Kd	Molecule
46 nM	B30
16.2 nM	B31
